2 molecules from paper PMC5394233, “Structural and functional analysis of the human POT1-TPP1 telomeric complex” (Nature Communications, 2017) can be followed below.

The target in experiment [1] is human POT1C (330-634) L343F (human) (UniProt Q9NUX5). Briefly: ITC; MicroCal iTC200; 100 uM TPP1(PBD) injected into the cell with 10 uM POT1C; 25 C; 25 mM Hepes pH 7.5, 0.1 M KCl, 5% glycerol, 1 mM TCEP; 16 injections of 2.47 ul; proteins purified separately. A general note: In ITC the heat of successive injections is recorded.
The target of experiment [2] is human POT1C (330-634) P475L (human) (UniProt Q9NUX5). The experiment is described as above.
The target in experiment [3] is human POT1C (330-634) A532P (human) (UniProt Q9NUX5). The experiment is described as above.
Experiment [4] addresses human POT1C (330-634) Q623H (human) (UniProt Q9NUX5). Described as above.
In experiment [5] the target is human POT1C (330-634) C591W (human) (UniProt Q9NUX5). The description is as above.
Experiment [6] addresses human POT1C (330-634) P446Q (human) (UniProt Q9NUX5). Described as above.
In experiment [7] the target is human POT1C (330-634) R477T (human) (UniProt Q9NUX5). The experiment is described as above.
The target of experiment [8] is human POT1 C-terminus (POT1C), residues 330-634, wild type (human) (UniProt Q9NUX5). Described as above.
For experiment [9], the target named is T1, human POT1C (residues 330-634) Q623H (human, UniProt Q9NUX5 330-634, Q623H).
T1 construct: POT1, human, C-terminal portion (OB-fold and HJR domain), residues 330-634, with the germline melanoma-associated mutation Q623H; PDB 5UN7 holds the wild-type parent with the same limits; The methods describe tag cleavage by TEV for the co-purified complex; For ITC the proteins were purified separately; also called POT1C Q623H; source: E. coli ScarabXpress T7 lac, purified (Ni-NTA, Poros HS/HQ, …)
T1 sequence (looked up): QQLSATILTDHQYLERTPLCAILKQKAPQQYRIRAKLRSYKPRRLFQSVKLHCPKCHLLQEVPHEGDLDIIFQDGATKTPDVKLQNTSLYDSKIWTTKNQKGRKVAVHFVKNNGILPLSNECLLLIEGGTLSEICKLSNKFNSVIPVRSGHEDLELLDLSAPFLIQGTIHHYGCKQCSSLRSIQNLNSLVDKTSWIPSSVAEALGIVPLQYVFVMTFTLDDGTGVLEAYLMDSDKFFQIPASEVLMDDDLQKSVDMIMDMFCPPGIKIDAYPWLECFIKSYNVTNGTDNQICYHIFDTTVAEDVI
Description: ITC; 100 uM TPP1(PBD) injected into the cell with 10 uM POT1C; 25 °C; 25 mM Hepes pH 7.5, 0.1 M KCl, 5% glycerol, 1 mM TCEP; 16 injections of 2.47 ul; three independent experiments. The following applies: both partners purified.

Sequence of human POT1C (330-634) L343F (human) (Q9NUX5 330-634 L343F): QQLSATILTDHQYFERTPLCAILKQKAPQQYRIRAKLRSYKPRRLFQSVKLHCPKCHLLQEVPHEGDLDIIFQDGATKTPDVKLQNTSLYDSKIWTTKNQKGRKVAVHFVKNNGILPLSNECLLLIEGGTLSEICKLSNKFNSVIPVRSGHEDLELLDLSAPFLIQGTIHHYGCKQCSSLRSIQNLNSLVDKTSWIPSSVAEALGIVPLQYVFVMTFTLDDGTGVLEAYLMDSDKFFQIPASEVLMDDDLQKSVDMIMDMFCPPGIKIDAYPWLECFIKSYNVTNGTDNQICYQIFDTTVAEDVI

In the case of “human TPP1 POT1-binding domain, TPP1(PBD), residues 255-337 (from UniProt Q96AP0 255-337) (domain or fragment)”, the dissociation constant (Kd) (as a rule, a measure of binding affinity in units of concentration) in [1] was found to be 114 nM; in experiment [2], 164 nM; in experiment [3], 117 nM; in [4], 471 nM; in experiment [5], 870 nM; in [6] it was 289 nM. In addition, the dissociation constant (Kd) is 123 nM in experiment [7] and 120 nM in experiment [8].

B1: human TPP1(PBD), residues 255-337 (domain or fragment)
chain: SQLLDEMREDQEHQGALVCLAESCLTLEGPCTAPPVTHWAASRCKATGEAVYTVPSSMLCISENDQLILSSLGPCQRTQGPEL
On to B1, for which, in experiment [9], binding was characterised by a dissociation constant (Kd) of 472 nM.
